Results from publication doi:10.1101/2022.07.21.500812 (bioRxiv, 2022).

Biological target: human GPC3 residues 32-483 (hGPC3^core) (human, UniProt P51654 32-483, N-linked glycans at N124 and N241)
Assay: SPR

Sequence of human GPC3 residues 32-483 (hGPC3^core) (P51654 32-483): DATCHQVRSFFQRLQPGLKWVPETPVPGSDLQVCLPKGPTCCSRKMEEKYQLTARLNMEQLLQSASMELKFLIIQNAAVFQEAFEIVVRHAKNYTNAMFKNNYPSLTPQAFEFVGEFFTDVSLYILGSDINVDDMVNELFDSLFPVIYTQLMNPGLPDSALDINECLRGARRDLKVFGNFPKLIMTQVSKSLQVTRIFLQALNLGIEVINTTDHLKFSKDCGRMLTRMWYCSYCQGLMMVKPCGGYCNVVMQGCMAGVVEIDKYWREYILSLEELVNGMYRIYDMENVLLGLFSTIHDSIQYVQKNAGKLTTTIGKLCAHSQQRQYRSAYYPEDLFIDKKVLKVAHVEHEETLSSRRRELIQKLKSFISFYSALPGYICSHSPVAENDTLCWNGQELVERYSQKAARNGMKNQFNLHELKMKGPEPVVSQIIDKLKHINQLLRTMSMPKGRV

B1: mouse Unc5A ectodomain (mUnc5A^ecto, residues 1-359) (domain or fragment)
chain: not shown
B1: binds.
